The nature of this data set: Standard protocol for determination of kcat and KM (continuous spectrophotometric assay, Acetyl CoA hydrolysis at 235 nm). Conditions: purified protein, about 23° C., 0.2 mM acetyl CoA; for Kcat: 20 mM HEPES pH 6.8, 10% ethylene glycol; for Km: pH 6.8, glyphosate 0.125 to 10 mM. The data set is classed as biochemical. Here is the method: KM was calculated from the initial reaction rates obtained from concentrations of glyphosate ranging from 0.125 to 10 mM, using the Lineweaver-Burke transformation of the Michaelis-Menten equation. kcat/KM was determined by dividing the value determined for kcat by the value determined for KM.
Using this methodology, kinetic parameters for a number of GAT polypeptides exemplified herein were determined. For example, the kcat, KM and kcat/KM for the GAT polypeptide corresponding to SEQ ID NO:445 have been determined to be 322 min^−1, 0.5 mM and 660 mM^−1 min^−1, respectively, using the assay conditions described above. The kcat, KM and kcat/KM for the GAT polypeptide corresponding to SEQ ID NO:457 have been determined to be 118 min^−1, 0.1 mM and 1184 mM^−1 min^−1, respectively, using the assay conditions described above. The kcat, KM and kcat/KM for the GAT polypeptide corresponding to SEQ ID NO:300 have been determined to be 296 min^−1, 0.65 mM and 456 mM^−1 min^−1, respectively, using the assay conditions described above. One of skill in the art can use these numbers to confirm that a GAT activity assay is generating kinetic parameters for a GAT suitable for comparison with the values given herein. For example, the conditions used to compare the activity of GATs should yield the same kinetic constants for SEQ ID NO: 300, 445 and 457 (within normal experimental variance) as those reported herein, when the conditions are used to compare a test GAT with the GAT polypeptides exemplified herein. Kinetic parameters for a number of GAT polypeptide variants were determined according to this methodology and are provided in Table 3.

B1: SEQ ID NO: 371: GAT polypeptide (protein)
chain: MIEVNPINAEDTYEIRHRILRPNQPLEACMYETDLLGGTSHLGGYYRGKLISIASFHNAEHSELDGQKQYQLRGMATLEGYREQKAGSTLIRHAEELLRKKGADLLWCNARTSVSGYYEKLGFSEQGEVYDIPPIGPHISMYKKLT
modifications: 4B_18F11
notes: GAT polypeptide
For B1, the Kcat is 0.243 s⁻¹ and the Km was determined as 1700 µM.

B2: SEQ ID NO: 300: GAT polypeptide (protein)
chain: MIEVKPINAEDTYEIRHRILRPNQPLEACMYETDSLGGTFHLGGYYRGKLISIASFNQAEHPELEGQKQYQLRGMATLEGYREQKAGSTLIRHAEELLRKKGADLLWCNARTSASGYYKKLGFSEQGEVYDTPPVGPHILMYKKLT
modifications: 13_6D10
notes: GAT polypeptide
As to B2, the Kcat is 4.942 s⁻¹ and the Km was found to be 650 µM. Under “listed as SEQ ID NO:300”, this molecule yielded a Kcat of 4.93 s⁻¹.

B3: SEQ ID NO: 361: GAT polypeptide (protein)
chain: MIEVKPINAEDTYEIRHRILRPNQPLEACMYETDLLGGTFHLGGYYRGKLISIASFHQAEHSELEGQKQYQLRGMATLEGYREQKAGSTLIRHAEELLRKKGADLLWCNARTSASGYYEKLGFSKQGEVYDIPPIGPHILMYKKLT
modifications: 3B_2E5
notes: GAT polypeptide
In the case of B3, the Kcat is 0.273 s⁻¹ and the Km stood at 1300 µM.

B4: SEQ ID NO: 366: GAT polypeptide (protein)
chain: MIEVKPINAEDTYEIRHRILRPNQPLEACKYETDLLGGTFHLGGYYRGKLISIASFHQAEHSELEGQKQYQLRGMATLEEYREQKAGSTLIRHAEELLRKKGADLLWCNARTSASGYYKKLGFSEQGEVYDIPPIGPHILMYKKLT
modifications: 4A_1C2
notes: GAT polypeptide
On to B4, for which the Kcat amounted to 0.34 s⁻¹ and the Km is 1200 µM.

B5: SEQ ID NO: 365: GAT polypeptide (protein)
chain: MIEVKPINAEDTYEIRHRILRPNQPLEACMYETDLLGGTFHLGGYYRGKLISIASFHQAEHPELEGQKQYQLRGMATLEGYREQKAGSTLIRHAEELLRKKGADLLWCNARTSASGYYEKLGFSEQGEVYDIPPIGPHILMYKKLT
modifications: 4A_1B11
notes: GAT polypeptide
B5: the Kcat came out at 0.387 s⁻¹ and the Km is 1600 µM.

B6: SEQ ID NO: 360: GAT polypeptide (protein)
chain: MIEVKPINAEDTYEIRHRILRPNQPLEACMYETDLLGGAFHLGGYYRGKLISIASFHPAEHSELEGQKQYQLRGMATLEGYREQKAGSTLIRHAEELLRKKGADLLWCNARISASGYYEKLGFSEQGEVYDIPPIGPHILMYKKLT
modifications: 3B_12D10
notes: GAT polypeptide
Take B6: the Kcat came to 0.09 s⁻¹ and the Km was found to be 900 µM.

B7: SEQ ID NO: 369: GAT polypeptide (protein)
chain: MIEVKPINAEDTYEIRHRILRPNQPLEACKYETDLLGGTFHLGGYYRGKLISIASFHQAEHSELEGQKQYQLRGMATLEGYREQKAGSTLIRHAEELLRKKGADLLWCNARTSASGYYKKLGFSEQGGVYDIPPIGPHILMYKKLT
modifications: 4B_16E1
notes: GAT polypeptide
B7: the Kcat was found to be 0.283 s⁻¹ and the Km came out at 1000 µM.

B8: SEQ ID NO: 358: GAT polypeptide (protein)
chain: MIEVKPINAEDTYEIRHRILRPNQPLEACMYETDLLGGTFHLGGYYRGKLISIASFHQAEHSELEGQKQYQLRGMATLEGYREQKAGSTLIRHAEELLRKKGADLLWCNARTSASGYYKKLGFSEQGGVYDIPPIGPHILMYKKLT
modifications: 3B_10G7
notes: GAT polypeptide
For the molecule B8, the Kcat worked out at 0.327 s⁻¹ and the Km stood at 1000 µM.

B9: SEQ ID NO: 363: GAT polypeptide (protein)
chain: MIEVKPINAEDTYEIRHRILRPNQPLEACMYETDLLGGTFHLGGYYRGKLISIASFHQAEHSELEGQKQYQLRGMATLEGYRGQKAGSTLIRHAEELLRKKGADLLWCNARTSASGYYEKLGFSEQGEVYDIPPIGPHILMYKKLT
modifications: 3C_12H10
notes: GAT polypeptide
Take B9: the Kcat amounted to 0.152 s⁻¹ and the Km stood at 1200 µM.

B10: SEQ ID NO: 362: GAT polypeptide (protein)
chain: MIEVKPINAEDTYEIRHRILRPNQPLEACMYETDLLGGTFHLGGYYRGKLISIASFHQAEHSELEGQKQYQLRGMATLEGYREQKAGSTLIRHAEELLRKKGADLLWCNARISASGYYKKLGFSEQGGVYDIPPVGPHILMYKKLT
modifications: 3C_10H3
notes: GAT polypeptide
Take B10: the Kcat is 0.565 s⁻¹ and the Km is 1100 µM.

B11: SEQ ID NO: 368: GAT polypeptide (protein)
chain: MIEVKPINAEDTYEIRHRILRPNQPLEACMYETDLLGGTFHLGGYYRGKLISIASFHQAEHSELEGQKQYQLRGMATLEGYREQKAGSTLIRHAEELLRKKGADLLWCNARTSASGYYKKLGFSEQGGVYDIPPIGPYILMYKKLT
modifications: 4B_13G10
notes: GAT polypeptide
As for B11, the Kcat came out at 0.582 s⁻¹ and the Km came to 7600 µM.

B12: SEQ ID NO: 359: GAT polypeptide (protein)
chain: MIEVKPINAEDTYEIRHRILRPNQPLEACMYETDLLGGTFHLGGYYRGKLISIASFHQAEHSELEGQKQYQLRGMATLEGYREQKAGSTLIRHAEELLRKKGADLLWCNARTSASGYYKKLGFSEQGEVYDIPPIGPHILMYKKLT
modifications: 3B_12B1
notes: GAT polypeptide
Regarding B12, the Kcat turned out to be 0.38 s⁻¹ and the Km was determined as 1200 µM.

B13: SEQ ID NO: 367: GAT polypeptide (protein)
chain: MIEVKPINAEDTYEIRHRILRPNQPLEACKYETDLLGGTFHLGGYYRGKLISIASFHQAEHPELEGQKQYQLRGMATLEEYREQKAGSTLIRHAEELLRKKGADLLWCNARISASGYYEKLGFSEQGEVYDIPPIGPHILMYKKLT
modifications: 4B_13E1
notes: GAT polypeptide
For B13, the Kcat is 0.62 s⁻¹ and the Km came to 2000 µM.

B14: SEQ ID NO: 357: GAT polypeptide (protein)
chain: MIEVRPINAEDTYEIRHRILRPNQPLEACMYETDLLGGTFHLGGYYRGKLISIASFHQAEHSELEGQKQYQLRGMATLEGYREQKAGSTLIRHAEELLRKKGADLLWCNARTSASGYYKKLGFSEQGEAYDIPPIGPHILMYKKLT
modifications: 3B_10C4
notes: GAT polypeptide
Regarding B14, the Kcat came to 0.413 s⁻¹ and the Km amounted to 1600 µM.

B15: SEQ ID NO: 370: GAT polypeptide (protein)
chain: MIEVKPINAEDTYEIRHRILRPNQPLEACKYETDLLGGTFHLGGYYRGKLISIASFHQAEHPELEGQKQYQLRGMATLEEYREQKAGSTLIRHAEELLRKKGADLLWCNARTSASGYYEKLGFSEQGEVYDIPPIGPHILMYKKLT
modifications: 4B_17A1
notes: GAT polypeptide
Turning to B15, the Kcat is 0.318 s⁻¹ and the Km was 1100 µM.

B16: SEQ ID NO: 267: GAT polypeptide (protein)
chain: MIEVKPINAEDTYEIRHRILRPNQPLEACKYETDLLRGAFHLGGYYRGKLVSIASFHQAEHPELEGQKQYQLRGMATLEGYREQKAGSTLIRHAEALLRKKGADLLWCNARTSASGYYKKLGFSEQGEVYDTPPAGPHILMYKKLT
modifications: 14_2F11
notes: GAT polypeptide
As for B16, the Kcat worked out at 2.282 s⁻¹ and the Km turned out to be 1700 µM.

B17: SEQ ID NO: 445: GAT polypeptide (protein)
chain: MLEVKPINAEDTYELRHRILRPNQPIEACMYESDLLRGAFHLGGYYRGKLISIASFHQAEHSELQGQKQYQLRGMATLEGYREQKAGSSLIKHAEEILRKRGADLLWCNARTSASGYYKKLGFSEQGEIFETPPVGPHILMYKRIT
modifications: 0_5D3
notes: GAT polypeptide
As for B17, the Kcat came out at 5.37 s⁻¹ and the Km turned out to be 500 µM.

B18: SEQ ID NO: 457: GAT polypeptide (protein)
chain: MLEVKPINAEDTYELRHKILRPNQPLEVCMYETDLLRGAFHLGGFYRGKLISIASFHQAEHSELQGQKQYQLRGMATLEGYREQKAGSSLIKHAEEILRKRGADLLWCNARTSASGYYKKLGFSEQGEVFDTPPVGPHILMYKRIT
modifications: 10_4H4
notes: GAT polypeptide
With B18, the Kcat was 1.9727 s⁻¹ and the Km amounted to 100 µM. Where the note is “listed as SEQ ID NO:457”, the Kcat was 1.97 s⁻¹.

B19: SEQ ID NO: 364: GAT polypeptide (protein)
chain: MIEVKPINAEDTYEIRHRILRPNQPLEACMYETDLLGGTFHLGGYYQDRLISIASFHQAEHSELEGQKQYQLRGMATLEGYREQKAGSTLIRYAEELLRKKGADLLWCNARISASGYYEKLGFSEQGEVYDIPPIGPHILMYKKLT
modifications: 3C_9H8
notes: GAT polypeptide
For the molecule B19, the Kcat was found to be 0.195 s⁻¹ and the Km was 1000 µM.

For the origin of these results see patent US8008547B2, “Glyphosate-N-acetyltransferase (GAT) genes” (E.I. duPont de Nemours, priority 2000, dated 2011).
